In paper doi:10.1101/2021.08.20.457142:

B1: MKK7 D-site peptide (second D-site) / JNK1 alpha1 (MAPK8 isoform 1) L198A, full length (parent complex)
chain 1: SQPQRPRPTLQLPLANEAFEQP
chain 2: MSRSKRDNNFYSVEIGDSTFTVLKRYQNLKPIGSGAQGIVCAAYDAILERNVAIKKLSRPFQNQTHAKRAYRELVLMKCVNHKNIIGLLNVFTPQKSLEEFQDVYIVMELMDANLCQVIQMELDHERMSYLLYQMLCGIKHLHSAGIIHRDLKPSNIVVKSDCTLKILDFGLARTAGTSFMMTPYVVTRYYRAPEVIAGMGYKENVDLWSVGCIMGEMVCHKILFPGRDYIDQWNKVIEQLGTPCPEFMKKLQPTVRTYVENRPKYAGYSFEKLFPDVLFPADSEHNKLKASQARDLLSKMLVIDASKRISVDEALQHPYINVWYDPSEAEAPPPKIPDKQLDEREHTIEEWKELIYKEVMDLEERTKNGVIRGQPSPLAQVQQ

Variants of: B1

screen value | Variant
-0.455 Z-score of the enrichment rate within one screen of 711 sequences | chain 1 R7A, chain 1 L10A
-0.605 Z-score of the enrichment rate within one screen of 711 sequences | chain 1 Q11A, chain 1 L12A
0.774 Z-score of the enrichment rate within one screen of 711 sequences | chain 1 T9A, chain 1 N16A
1.12 Z-score of the enrichment rate within one screen of 711 sequences | chain 1 Q4M
1.45 Z-score of the enrichment rate within one screen of 711 sequences | chain 1 Q4T
1.48 Z-score of the enrichment rate within one screen of 711 sequences | chain 1 Q4A
1.59 Z-score of the enrichment rate within one screen of 711 sequences | chain 1 Q4H
1.28 Z-score of the enrichment rate within one screen of 711 sequences | chain 1 Q4N
1.4 Z-score of the enrichment rate within one screen of 711 sequences | chain 1 Q4E
2 Z-score of the enrichment rate within one screen of 711 sequences | chain 1 Q4R
2.02 Z-score of the enrichment rate within one screen of 711 sequences | chain 1 Q4S
1.2 Z-score of the enrichment rate within one screen of 711 sequences | chain 1 Q4W
1.26 Z-score of the enrichment rate within one screen of 711 sequences | chain 1 Q4G
0.559 Z-score of the enrichment rate within one screen of 711 sequences | chain 1 P3A, chain 1 L14A
1.43 Z-score of the enrichment rate within one screen of 711 sequences | chain 1 P3S, chain 1 Q4K
0.112 Z-score of the enrichment rate within one screen of 711 sequences | chain 1 R7A, chain 1 T9A
1.51 Z-score of the enrichment rate within one screen of 711 sequences | chain 1 P3A, chain 1 P13A
0.805 Z-score of the enrichment rate within one screen of 711 sequences | chain 1 L14M
0.512 Z-score of the enrichment rate within one screen of 711 sequences | chain 1 L14N
0.653 Z-score of the enrichment rate within one screen of 711 sequences | chain 1 L14G
0.637 Z-score of the enrichment rate within one screen of 711 sequences | chain 1 L14Q
1.36 Z-score of the enrichment rate within one screen of 711 sequences | chain 1 L14W
0.826 Z-score of the enrichment rate within one screen of 711 sequences | chain 1 L14V
0.365 Z-score of the enrichment rate within one screen of 711 sequences | chain 1 L14E
0.942 Z-score of the enrichment rate within one screen of 711 sequences | chain 1 L14S

screen value | Variant
1.27 Z-score of the enrichment rate within one screen of 711 sequences | chain 1 L14C
0.562 Z-score of the enrichment rate within one screen of 711 sequences | chain 1 Q4A, chain 1 L14A
-0.696 Z-score of the enrichment rate within one screen of 711 sequences | chain 1 L10A, chain 1 N16A
0.716 Z-score of the enrichment rate within one screen of 711 sequences | chain 1 Q11A, chain 1 L14A
1.43 Z-score of the enrichment rate within one screen of 711 sequences | chain 1 Q4A, chain 1 Q11A
1.59 Z-score of the enrichment rate within one screen of 711 sequences | chain 1 T9R
1.85 Z-score of the enrichment rate within one screen of 711 sequences | chain 1 T9N
1.12 Z-score of the enrichment rate within one screen of 711 sequences | chain 1 T9V
0.628 Z-score of the enrichment rate within one screen of 711 sequences | chain 1 T9G
0.998 Z-score of the enrichment rate within one screen of 711 sequences | chain 1 T9A
1.4 Z-score of the enrichment rate within one screen of 711 sequences | chain 1 T9S
0.775 Z-score of the enrichment rate within one screen of 711 sequences | chain 1 T9P
1.93 Z-score of the enrichment rate within one screen of 711 sequences | chain 1 T9I
1.65 Z-score of the enrichment rate within one screen of 711 sequences | chain 1 T9K
0.933 Z-score of the enrichment rate within one screen of 711 sequences | chain 1 T9D
0.774 Z-score of the enrichment rate within one screen of 711 sequences | chain 1 L12W
-0.33 Z-score of the enrichment rate within one screen of 711 sequences | chain 1 L12H
-0.431 Z-score of the enrichment rate within one screen of 711 sequences | chain 1 L12K
-0.304 Z-score of the enrichment rate within one screen of 711 sequences | chain 1 L12T
0.011 Z-score of the enrichment rate within one screen of 711 sequences | chain 1 L12M
-0.861 Z-score of the enrichment rate within one screen of 711 sequences | chain 1 L12Y
-0.194 Z-score of the enrichment rate within one screen of 711 sequences | chain 1 L12S
-0.686 Z-score of the enrichment rate within one screen of 711 sequences | chain 1 L12D
0.226 Z-score of the enrichment rate within one screen of 711 sequences | chain 1 L12F
-0.521 Z-score of the enrichment rate within one screen of 711 sequences | chain 1 L12R

screen value | Variant
1.09 Z-score of the enrichment rate within one screen of 711 sequences | chain 1 Q4A, chain 1 P6A
1.16 Z-score of the enrichment rate within one screen of 711 sequences | chain 1 P6A, chain 1 T9A
-0.251 Z-score of the enrichment rate within one screen of 711 sequences | chain 1 P3A, chain 1 L10A
0.479 Z-score of the enrichment rate within one screen of 711 sequences | chain 1 R5A, chain 1 N16A
0.212 Z-score of the enrichment rate within one screen of 711 sequences | chain 1 P3A, chain 1 R7A
-0.511 Z-score of the enrichment rate within one screen of 711 sequences | chain 1 L10A, chain 1 L12A
1.32 Z-score of the enrichment rate within one screen of 711 sequences | chain 1 Q4A, chain 1 T9A
1.42 Z-score of the enrichment rate within one screen of 711 sequences | chain 1 P3K
1.07 Z-score of the enrichment rate within one screen of 711 sequences | chain 1 P3L
1.42 Z-score of the enrichment rate within one screen of 711 sequences | chain 1 P3C
1.42 Z-score of the enrichment rate within one screen of 711 sequences | chain 1 P3A
1.21 Z-score of the enrichment rate within one screen of 711 sequences | chain 1 P3E
1.41 Z-score of the enrichment rate within one screen of 711 sequences | chain 1 P3Y
1.27 Z-score of the enrichment rate within one screen of 711 sequences | chain 1 P3H
1.66 Z-score of the enrichment rate within one screen of 711 sequences | chain 1 P3R
1.7 Z-score of the enrichment rate within one screen of 711 sequences | chain 1 P3T
1.4 Z-score of the enrichment rate within one screen of 711 sequences | chain 1 P3G
1.16 Z-score of the enrichment rate within one screen of 711 sequences | chain 1 Q11A, chain 1 N16A
1.61 Z-score of the enrichment rate within one screen of 711 sequences | chain 1 P3A, chain 1 Q4A
-0.717 Z-score of the enrichment rate within one screen of 711 sequences | chain 1 P8A, chain 1 L12A
0.044 Z-score of the enrichment rate within one screen of 711 sequences | chain 1 R7A, chain 1 Q11A
0.638 Z-score of the enrichment rate within one screen of 711 sequences | chain 1 R7T
0.232 Z-score of the enrichment rate within one screen of 711 sequences | chain 1 R7C
-0.584 Z-score of the enrichment rate within one screen of 711 sequences | chain 1 R7D
0.245 Z-score of the enrichment rate within one screen of 711 sequences | chain 1 R7Y
